{
  "source": "paper PMC10205607",
  "about": "“MAP4K3 inhibits Sirtuin-1 to repress the LKB1–AMPK pathway to promote amino acid-dependent activation of the mTORC1 complex” (Life Science Alliance, 2023)",
  "binders": {"B1": {"name": "SIRT1-HA-T344D (enzyme, UniProt Q96EB6 1-747, looked up)", "chain": "MADEAALALQPGGSPSAAGADREAASSPAGEPLRKRPRRDGPGLERSPGEPGGAAPEREVPAAARGCPGAAAAALWREAEAEAAAAGGEQEAQATAAAGEGDNGPGLQGPSREPPLADNLYDEDDDDEGEEEEEAAAAAIGYRDNLLFGDEIITNGFHSCESDEEDRASHASSSDWTPRPRIGPYTFVQQHLMIGTDPRTILKDLLPETIPPPELDDMTLWQIVINILSEPPKRKKRKDINTIEDAVKLLQECKKIIVLTGAGVSVSCGIPDFRSRDGIYARLAVDFPDLPDPQAMFDIEYFRKDPRPFFKFAKEIYPGQFQPSLCHKFIALSDKEGKLLRNYDQNIDTLEQVAGIQRIIQCHGSFATASCLICKYKVDCEAVRGDIFNQVVPRCPRCPADEPLAIMKPEIVFFGENLPEQFHRAMKYDKDEVDLLIVIGSSLKVRPVALIPSSIPHEVPQILINREPLPHLHFDVELLGDCDVIINELCHRLGGEYAKLCCNPVKLSEITEKPPRTQKELAYLSELPPTPLHVSEDSSSPERTSPPDSSVIVTLLDQAAKSNDDLDVSESKGCMEEKPQEVQTSRNVESIAEQMENPDLKNVGSSTGEKNERTSVAGTVRKCWPNRVAKEQISRRLDGNQYLFLPPNRYIFHGAEVYSDSEDDVLSSSSCGSNSDSGTCQSPSLEEPMEDESEIEEFYNGLEDEPDVPERAGGAGFGTDGDDQEAINEAISVKQEVTDMNYPSNKS", "notes": "Derived from the SIRT1-HA construct; also called SIRT1-T344D; SIRT1-T344D-HA; source: MAP4K3 k.o; HEK293A (M4 line), transfected, in lysate"}},
  "molecular_target": "T1, FLAG-LKB1 (UniProt Q15831 1-433)",
  "T1 construct": "Liver kinase B1 (LKB1); also called liver kinase B1; source: HEK293A (WT or MAP4K3 k.o.), transfected, in lysate",
  "T1 sequence (looked up)": "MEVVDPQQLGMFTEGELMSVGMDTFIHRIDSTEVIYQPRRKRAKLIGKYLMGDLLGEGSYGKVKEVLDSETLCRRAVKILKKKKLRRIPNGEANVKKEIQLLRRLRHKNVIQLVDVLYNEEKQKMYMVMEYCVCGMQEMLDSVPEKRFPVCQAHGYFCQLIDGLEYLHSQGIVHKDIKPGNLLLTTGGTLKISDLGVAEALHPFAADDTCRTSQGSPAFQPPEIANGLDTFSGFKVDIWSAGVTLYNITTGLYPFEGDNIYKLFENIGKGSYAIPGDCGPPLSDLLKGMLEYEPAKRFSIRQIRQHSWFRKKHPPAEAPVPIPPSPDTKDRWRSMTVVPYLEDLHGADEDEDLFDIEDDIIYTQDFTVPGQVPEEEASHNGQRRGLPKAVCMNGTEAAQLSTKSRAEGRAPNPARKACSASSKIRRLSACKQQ",
  "assay": "co-IP; anti-FLAG IP from lysates of co-transfected HEK293A cells (WT or MAP4K3 k.o.), blot with anti-HA and anti-FLAG; lysis buffer 25 mM HEPES-KOH pH 7.4, 150 mM NaCl, 5 mM EDTA, 1% Triton X-100; 2 h at 4°C",
  "conditions": "partners not purified",
  "data": [
    {"binder": "B1", "values": [
      {"measurement": "fold change of the co-precipitate against WT SIRT1 with LKB1 (in MAP4K3 k.o. cells)", "result": "~2", "unit": "fold"}
    ]}
  ]
}
